B1: Dendritic cell nuclear protein 1 (Homo sapiens), Q8TF63 (parent)
chain: MHYGAATHIQNSRSHGLETVPGHQRLERGAGGETPEFPGCHSPAPPENFGNELLPLSAPLQGLSEGLYPPGRNKTLPAGVLREGAVQFLHRGLCNSNLSSEASARPSGTQDELHSSRRKTGQTRREGARKHLVCSFRLYPFTVHTVSPGNSHLALYQVFKAVKLCPSETSFFLSRKSLKSSDPWHPPSLSPNSWNRQAGFRAWSSHLISLSLTCSDSQSRRVSSSQQPPLHSLSSHRRAAHVPE
B2: Fibronectin type III and SPRY domain-containing protein 2 (Homo sapiens), A1L4K1 (parent)
chain: MEEESGEELGLDRSTPKDFHFYHMDLYDSEDRLHLFPEENTRMRKVVQAEMANESRGAGDGKAQRDLQEEVDELVHLYGLEDDHELGDEFVDENIPRTGVSEYPPYMMKRRDPAREQRDWRLSGEAAEAEDLGFGGWGSAGQCQDLREAYRYTHGRASEEYECYVIPEEEDEEEAADVFCVTCKTPIRAFQKVFDEHKEHEVIPLNEALESAKDEIHKNMYKLEKQIIEMENFANHLEEVFITVEENFGKQEQNFESHYNEILETLAQKYEEKIQALGEKKKEKLEALYGQLVSCGENLDTCKELMETIEEMCHEEKVDFIKDAVAMADRLGKFLKTKTDVEISAQPEFEDQTLDFSDVEQLMGSINTIPAPSAPVINPQVPNSATGSSVRVCWSLYSDDTVESYQLSYRPVQDSSPGTDQAEFTVTVKETYCSVTNLVPNTQYEFWVTAHNRAGPSPSSERAVYMTAPSPPIIKTKEIRSCEEAVLICWESGNLNPVDSYTVELTQAESPEASGVTESVVGIPTCESVVQLQPGRSYIIYVRALNMGGPSVRSEPATVHTIGSYFRLNKDTCHPWLTISEDGLTAVRSERRTPARELSPSDTHFTRCVAVMGNLIPVRGHHYWEVEVDEHLDYRVGVAFADVRKQEDLGANCLSWCMRHTFASSRHKYEFLHNRTTPDIRITVPPKKIGILLDYEHSKLSFFNVDLSQHLYTFSCQLHEFVHPCFSLEKPGCLKVHNGISMPKHVTFY
partner: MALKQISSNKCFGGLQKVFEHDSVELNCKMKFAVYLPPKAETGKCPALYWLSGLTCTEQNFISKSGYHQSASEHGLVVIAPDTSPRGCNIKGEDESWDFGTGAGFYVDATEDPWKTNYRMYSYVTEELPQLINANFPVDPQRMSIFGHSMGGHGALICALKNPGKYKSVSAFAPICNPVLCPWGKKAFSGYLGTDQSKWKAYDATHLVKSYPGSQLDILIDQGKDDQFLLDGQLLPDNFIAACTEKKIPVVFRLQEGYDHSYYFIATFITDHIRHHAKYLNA
B3: Progranulin (Homo sapiens), P28799 (parent)
chain: MWTLVSWVALTAGLVAGTRCPDGQFCPVACCLDPGGASYSCCRPLLDKWPTTLSRHLGGPCQVDAHCSAGHSCIFTVSGTSSCCPFPEAVACGDGHHCCPRGFHCSADGRSCFQRSGNNSVGAIQCPDSQFECPDFSTCCVMVDGSWGCCPMPQASCCEDRVHCCPHGAFCDLVHTRCITPTGTHPLAKKLPAQRTNRAVALSSSVMCPDARSRCPDGSTCCELPSGKYGCCPMPNATCCSDHLHCCPQDTVCDLIQSKCLSKENATTDLLTKLPAHTVGDVKCDMEVSCPDGYTCCRLQSGAWGCCPFTQAVCCEDHIHCCPAGFTCDTQKGTCEQGPHQVPWMEKAPAHLSLPDPQALKRDVPCDNVSSCPSSDTCCQLTSGEWGCCPIPEAVCCSDHQHCCPQGYTCVAEGQCQRGSEIVAGLEKMPARRASLSHPRDIGCDQHTSCPVGQTCCPSLGGSWACCQLPHAVCCEDRQHCCPAGYTCNVKARSCEKEVVSAQPATFLARSPHVGVKDVECGEGHFCHDNQTCCRDNRQGWACCPYRQGVCCADRRHCCPAGFRCAARGTKCLRREAPRWDAPLRDPALRQLL
partner: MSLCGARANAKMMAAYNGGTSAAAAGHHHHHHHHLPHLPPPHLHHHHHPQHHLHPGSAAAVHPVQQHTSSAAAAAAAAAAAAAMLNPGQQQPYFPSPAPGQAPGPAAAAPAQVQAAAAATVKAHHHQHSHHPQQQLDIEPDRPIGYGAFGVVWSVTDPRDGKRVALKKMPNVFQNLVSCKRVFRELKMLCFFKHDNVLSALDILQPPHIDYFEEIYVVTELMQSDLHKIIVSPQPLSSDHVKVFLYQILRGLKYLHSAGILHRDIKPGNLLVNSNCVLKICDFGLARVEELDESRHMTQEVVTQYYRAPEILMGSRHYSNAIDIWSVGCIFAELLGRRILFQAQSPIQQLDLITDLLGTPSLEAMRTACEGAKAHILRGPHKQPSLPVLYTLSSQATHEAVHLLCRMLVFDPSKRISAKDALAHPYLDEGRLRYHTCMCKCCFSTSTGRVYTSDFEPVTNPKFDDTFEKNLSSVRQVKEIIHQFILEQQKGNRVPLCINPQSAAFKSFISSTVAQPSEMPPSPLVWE
B4: Protein FAM9B (Homo sapiens), Q8IZU0 (parent)
chain: MAAWGKKHAGKDPVRDECEERNRFTETREEDVTDEHGEREPFAETDEHTGANTKKPEDTAEDLTAKRKRMKMDKTCSKTKNKSKHALRKKQLKRQKRDYIHSLKLLNVLEEYITDEQKEEEEEEGEEEELIRIFQEQQKKWQQYRSVRRERLKEMKLLRDQFVKALEDFEDLCDRVFSDEDSELDN
partner: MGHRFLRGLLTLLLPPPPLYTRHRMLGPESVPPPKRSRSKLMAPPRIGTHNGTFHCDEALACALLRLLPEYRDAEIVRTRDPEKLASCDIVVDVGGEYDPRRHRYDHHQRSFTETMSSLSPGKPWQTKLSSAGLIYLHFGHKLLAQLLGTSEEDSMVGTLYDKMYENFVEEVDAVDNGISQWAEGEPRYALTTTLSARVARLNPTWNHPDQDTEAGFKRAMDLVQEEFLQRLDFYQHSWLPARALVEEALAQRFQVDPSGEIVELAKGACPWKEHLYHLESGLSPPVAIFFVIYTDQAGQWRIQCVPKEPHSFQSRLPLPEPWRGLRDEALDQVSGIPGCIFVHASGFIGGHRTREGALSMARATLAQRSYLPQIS
B5: Carboxy-terminal domain RNA polymerase II polypeptide A small phosphatase 1 (Homo sapiens), Q9GZU7 (parent)
chain: MDSSAVITQISKEEARGPLRGKGDQKSAASQKPRSRGILHSLFCCVCRDDGEALPAHSGAPLLVEENGAIPKQTPVQYLLPEAKAQDSDKICVVIDLDETLVHSSFKPVNNADFIIPVEIDGVVHQVYVLKRPHVDEFLQRMGELFECVLFTASLAKYADPVADLLDKWGAFRARLFRESCVFHRGNYVKDLSRLGRDLRRVLILDNSPASYVFHPDNAVPVASWFDNMSDTELHDLLPFFEQLSRVDDVYSVLRQPRPGS

Variants of B1 are the subject of the first experiment. The following applies: with mdfi_human MDFI.
Regarding S135C, the “effect of a mutation on the interaction” value is “with no effect”.

Variants of B2 are the subject of the next experiment. Particulars: with estd_human ESD.
Take E720K: the “effect of a mutation on the interaction” value is on record as “with no effect”.
Still for that read-out and setting: as for K333T, the entry is “with no effect”.

The next experiment covers variants of B3. Particulars: with nlk_human NLK.
For the variant R19W, the “effect of a mutation on the interaction” value is “with no effect”.

The variants in a further experiment derive from B4. The following applies: with myg1_human MYG1, Q9HB07.
Take R23H: the “effect of a mutation on the interaction” value was “with no effect”.

A further experiment covers variants of B5. The following applies: with mbp_human MBP.
Consider A56T, for which the “effect of a mutation on the interaction” value is reported as “with no effect”.

Source of the values: IntAct's records for PubMed 31515488.
